Results: US20200362306A1 (published 2020)
Blank lines part the entries; values can stand above or below the binder they belong to.

Target: T1, human mesothelin (human, UniProt Q13421 296-580, limits assumed)
T1 construct: also called MSLN
Assay: method not stated; affinity given in parentheses for the binder

T1 sequence (Q13421 other isoform, or with tags, fused parts or gaps limits assumed): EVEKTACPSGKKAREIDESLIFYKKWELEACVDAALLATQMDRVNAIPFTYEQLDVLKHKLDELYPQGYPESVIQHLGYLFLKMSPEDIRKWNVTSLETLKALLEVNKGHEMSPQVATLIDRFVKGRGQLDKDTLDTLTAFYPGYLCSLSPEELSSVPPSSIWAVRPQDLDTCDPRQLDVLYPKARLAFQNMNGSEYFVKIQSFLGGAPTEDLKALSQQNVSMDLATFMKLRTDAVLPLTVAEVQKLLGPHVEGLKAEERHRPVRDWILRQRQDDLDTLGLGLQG

Kd: 25 nM
B1: Single domain anti-MSLN binder 1 (SD1) (VHH)
VHH: EVQLVESGGGLVQPGGSLRLSCAASGGDWSANFMYWYRQAPGKQRELVARISGRGVVDYVESVKGRFTISRDNSKNTLYLQMNSLRAEDTAVYYCAVASYWGQGTLVTVSS
notes: also called anti-MSLN-SD1

Kd: 6 nM
B2: Single domain anti-MSLN binder 4 (SD4) (VHH)
VHH: EVQLVESGGGLVQPGGSLRLSCAASGSTSSINTMYWYRQAPGKERELVAFISSGGSTNVRDSVKGRFTISRDNSKNTLYLQMNSLRAEDTAVYYCNTYIPYGGTLHDFWGQGTLVTVSS
notes: also called anti-MSLN-SD4
